Sequences and labels used below:
B1: Tsa1 (wild type) [S. cerevisiae] / HA-tagged Pyk1 (HA-Pyk1) [S. cerevisiae] (parent)
chain 1: MVAQVQKQAPTFKKTAVVDGVFDEVSLDKYKGKYVVLAFIPLAFTFVCPTEIIAFSEAAKKFEEQGAQVLFASTDSEYSLLAWTNIPRKEGGLGPINIPLLADTNHSLSRDYGVLIEEEGVALRGLFIIDPKGVIRHITINDLPVGRNVDEALRLVEAFQWTDKNGTVLPCNWTPGAATIKPTVEDSKEYFEAANK
chain 2: MSRLERLTSLNVVAGSDLRRTSIIGTIGPKTNNPETLVALRKAGLNIVRMNFSHGSYEYHKSVIDNARKSEELYPGRPLAIALDTKGPEIRTGTTTNDVDYPIPPNHEMIFTTDDKYAKACDDKIMYVDYKNITKVISAGRIIYVDDGVLSFQVLEVVDDKTLKVKALNAGKICSHKGVNLPGTDVDLPALSEKDKEDLRFGVKNGVHMVFASFIRTANDVLTIREVLGEQGKDVKIIVKIENQQGVNNFDEILKVTDGVMVARGDLGIEIPAPEVLAVQKKLIAKSNLAGKPVICATQMLESMTYNPRPTRAEVSDVGNAILDGADCVMLSGETAKGNYPINAVTTMAETAVIAEQAIAYLPNYDDMRNCTPKPTSTTETVAASAVAAVFEQKAKAIIVLSTSGTTPRLVSKYRPNCPIILVTRCPRAARFSHLYRGVFPFVFEKEPVSDWTDDVEARINFGIEKAKEFGILKKGDTYVSIQGFKAGAGHSNTLQVSTV

Variants of B1 are the subject of one assay. The assay can be described thus: pull-down (co-IP with anti-HA beads, anti-Tsa1 immunoblot, band quantification). The settings on record: +DTT, lane 9, lysate 67 μg/lane and 111 μg/lane for HA-Pyk1 and Tsa1, parent: 1.
For chain 1 C48T C171T, the ratio to parent amounted to 0.5.

The same assay, now with this note: +DTT, lane 9, lysate 67 μg/lane and 111 μg/lane for HA-Pyk1 and Tsa1, parent: 3.1.
On to chain 1 C48T C171T, for which the screen value (% of Total Tsa1) came out at 1.3.

The values above are taken from PMC5025857, “Redox-dependent Regulation of Gluconeogenesis by a Novel Mechanism Mediated by a Peroxidatic Cysteine of Peroxiredoxin” (Scientific Reports, 2016).
